Values of other authors, collected in PMC3720600.

Biological target: Cys145 (UniProt position 145, PILIPCHRVVC)

Substance: O6-methylguanine-DNA methyltransferase (MGMT; O6-alkylguanine-DNA alkyltransferase, AGT) (Homo sapiens)
- pKa: 4.8
